Experiments:
acid β-glucosidase = molecular target: T1, acid β-glucosidase (Homo sapiens, UniProt P04062); assay: Acid β-glucosidase activation in liposomal reconstitution system; format: biochemical
T1 sequence (P04062 40-536): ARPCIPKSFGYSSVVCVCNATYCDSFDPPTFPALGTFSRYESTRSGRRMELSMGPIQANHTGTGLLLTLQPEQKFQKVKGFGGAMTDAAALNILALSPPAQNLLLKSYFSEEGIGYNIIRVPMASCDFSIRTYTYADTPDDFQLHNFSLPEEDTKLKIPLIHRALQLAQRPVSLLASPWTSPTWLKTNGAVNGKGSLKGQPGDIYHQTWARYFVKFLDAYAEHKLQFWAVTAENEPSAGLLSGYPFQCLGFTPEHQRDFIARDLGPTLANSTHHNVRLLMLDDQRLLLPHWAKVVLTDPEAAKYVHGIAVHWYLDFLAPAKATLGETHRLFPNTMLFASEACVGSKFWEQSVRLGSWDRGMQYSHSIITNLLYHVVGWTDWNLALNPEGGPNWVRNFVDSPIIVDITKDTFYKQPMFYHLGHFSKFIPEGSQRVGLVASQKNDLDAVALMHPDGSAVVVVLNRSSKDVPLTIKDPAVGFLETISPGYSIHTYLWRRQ
Method: Functional saposins were overexpressed in BL21(DE3) cells using a pET 21a series vector. Following IPTG induction at 37° C. or 30° C., large amounts of saposins containing His-Tag were found in the soluble fraction of the disrupted cells. These were conveniently purified to electrophoretic homogeneity on nickel-loaded columns. Alternatively, saposins without His-Tag were generated by introducing a stop codon after protein coding region, and then purified using immuno-affinity columns with T7-taq monoclonal antibody. […] Circular dichroism spectra, light scattering, and ES-MS analyses were used to evaluate the physical properties of the purified saposins, such as aggregation status and molecular weight. Trp-saposins without His-Tag were also generated for necessary control experiments. The functional integrity of recombinant saposin C is determined using delipidated and homogenous acid β-glucosidase in a liposomal reconstitution system and in neuritogenic assays. Recombinant saposin B function is determined using a sulfatide binding assay.

[1] = R18 dequenching stopped-flow liposomal fusion assay; format: biochemical; settings: unsaturated PS(18:1,1) vesicles, compared with Ca^2+
From the text: Fluorescence probes have been widely used to determine membrane fusion, such as fluorescence dequenching, and fluorescence resonance energy transfer (FET), and can be used for quantitative and kinetics analyses. The dequenching approach is used to investigate saposin C's fusogenic activity. Octadecyl rhodamine B (R18) is selected as fluorescence probe and is entrapped in internal aqueous compartment of liposomal vesicles by co-sonication with BPS or PS(18:1,1).
Fluorescence increase (dequenching) of R18 occurs upon R18 concentration decreases. After non-labeled and labeled vesicles fuse, the R18 concentration is diluted, resulting in an increase in intensity of fluorescence. R18-labeled vesicles (lipid:R18=96:4, mol:mol) are mixed with the same lipid vesicles without fluorescence probe. Stopped-flow assays are conducted to quickly mix these vesicles with saposin C or Ca^2+ ion. Time-trace curves are generated for kinetic analysis. […] Fusion occurs extensively when reaction temperature is above the phase Transition temperature (Tc) of phospholipids. The Tc of synthetic PS(18:1) is about −11° C., while the Tc of PS(18:0) is very high (68° C.). Thus, the lipid bilayer phase of PS(18:1,1) is different to that of BPS(18:0 and 18:1) at 24° C.

[2] = Saposin C-PS(18:1,1) liposome complex: stability and mechanism of fusion; format: biochemical
Method: Protein conformational changes are thought to play a role in protein-mediated membrane fusion. This fusion mechanism is evaluated using saposin C-dependent membrane fusion. First, saposin C—PS(18:1,1) liposome complexes are formed. In this saposin C-anchored membrane, protein conformation is altered. This complex is stable from pH 3 to 10, and in low concentrations of SDS solution.
Since the Trp in saposin C(0W) is embedded inside of lipid bilayer, the change of its signal is indicative of that the surrounding environment of Trp has been changed. After about 20 to 30 ms, Trp fluorescence signal decreases to the starting level. […] Shortly after this, the signal drops back to starting level signaling on end of the fusion process. […] Therefore, a conformational change of saposin C upon lipid binding is […] for its fusogenic activity.

[3] = Vesicle size change determination (N4 plus submicron particle sizer); format: biochemical
From the text: The amino acid residues 51-67 are necessary, but not sufficient, for its optimal enzymatic activation function. The disulfide structure and conformational alteration of saposin C upon lipid binding are also required for this activity. Three approaches are used for this study: (1) stopped-flow monitoring reduction of self-quenching resulting from fusion of fluorescence probe-containing vesicle with non-fluorescent vesicle induced by saposin C; (2) monitoring the lipid vesicle size changes upon addition of saposin C to vesicles, the size distribution as determined using N4 plus submicron particle sizer (Coulter Co.); (3) monitoring intrinsic fluorescence of Trp-saposin C change during liposomal fusion.
[…] is used for vesicle fusion analysis, since the size of fused vesicles is bigger than those of non-fused. N4 plus submicron particle size is used to estimate particle sizes in the range of 3 nm to 3 μm since most liposomes fit in this range. Sonication conditions with a cup sonicator give mono-dispersed BPS-liposomes with ˜200 nm in size. Upon addition of saposin C, these vesicles change to a larger size up to 2-3 μm. The size increase is related to vesicles fusion as shown by the above dequenching experiments.
Saposin C promotes the size changes at ˜50 nM concentration. To define the regions responsible for this fusion property, peptides containing only 50% of the NH2-terminal or 50% of the COOH-terminal halves in saposin C are tested. Both peptides show fusion activity.

[4] = tested on: cultured mouse cortical and hippocampal neurons; assay: Transport of saposin C into cultured neurons by DOPS liposomes; format: cell-based; settings: facilitated by complexes with DOPS liposomes
Method: Saposin C can be transported into endosomal and lysosomal compartments using saposin-C liposomes containing long-chain anionic phospholipids. This method can be used for the treatment of neurological diseases including, for example, those in which MVB accumulation contributes to pathology and progression of disease.
Primary Cortical Neuron Cultures—Cortical neurons are cultured in serum-free Neuroblasal medium with B27 supplements as described by Whitmarsh et al.^44 Take out E16 mouse embryos, cut the head and place them into ice-cold Ca/Mg-free Hank Balance Salt Solution (HBSS) with papain (1 mg/ml). The brain is dissected out and place scalpel along the dorsal midline between the two cerebral hemispheres but slightly deviate towards to the side as it cut. This will give a clean cerebral cortex. […]
Immunofluorescence staining is done as described with minor modification.^15 Cultured cells (1×10^5) in a dish with coverslips are washed with PBS and fixed with 2% paraformaldehyde for 10 min at room temperature. After treating with 0.1% Triton X-100 in PBS, the samples are incubated with each respective primary antiserum (for 2 h) and fluorescence-conjugated secondary antibody (for 1 h) at 37° C. […] Antifade is added on the section to prevent the fluorescence quenching. Fluorescence signals are detected by a confocal microscopy (LSM510, Zeiss) or a fluorescence microscopy (Zeiss Axioskop).

[5] = Fluorescence stopped-flow of saposin C binding to PS vesicles; settings: PS(18:1,1) or BPS vesicles
From the text: To investigate temporal and spatial interactions of saposins and liposomal membrane, fluorescence stopped-flow and quenching approaches are used with Trp as the intrinsic fluorescence probe of the saposins. These experiments allow identification of regional interactions between saposins and lipid bilayers, and also the kinetics of their binding.
This binding induces change is lipid-concentration dependent and requires at least one unsaturated fatty acid chain. To evaluate the kinetics of this interaction, stopped-flow experiments are conducted the change in fluorescence during saposin C/liposome complex formation is monitored. When saposin C(0W) is mixed with PS(18:1,1) or BPS vesicles, fluorescence of Trp is increased, but the time course of this change is undetectable due to limitation of the machine's capability. Apparently, the interaction of saposin C and unsaturated PS containing membranes occurs within at least 10 ms.

B1: Saposin C: Recombinant saposin C, prosaposin-derived fusogenic lysosomal protein, expressed in E. coli (His-tag) (protein, listed as Homo sapiens)
chain: SDVYCEVCEFLVKEVTKLIDNNKTEKEILDAFDKMCSKLPKSLSEECQEVVDTYGSSILSILLEEVSPELVCSMLHLCSG
modifications: His-tag
activation of acid β-glucosidase (acid β-glucosidase): excellent activation
kinetics of induced membrane fusion [1]: same kinetics as those with Ca^2+
fusogenic activity when bound to lipid membrane [2]: retains the fusogenic activity
concentration promoting the size changes ([3]; BPS-liposomes): ~50 nM
vesicle size after addition of saposin C ([3]; mono-dispersed BPS-liposomes of ~200 nm before addition): 2-3 μm
vesicle size enlargement ([3]; pH 4.7, over a 10 min period): enlarges vesicle size
vesicle size enlargement ([3]; pH 7.4, over a 10 min period): not at pH 7.4
transport into neurons [4]: can be transported into the cultured mouse cortical and hippocampal neurons
time within which interaction with unsaturated PS containing membranes occurs [5]: ≤ 10 ms

B2: Saposin C + Phosphatidylserine (18:1, 1): saposin C complexed with acidic, unsaturated phosphatidylserine PS(18:1,1) liposomes (protein, UniProt P07602 311-390, looked up)
Saposin-C: SDVYCEVCEFLVKEVTKLIDNNKTEKEILDAFDKMCSKLPKSLSEECQEVVDTYGSSILSILLEEVSPELVCSMLHLCSG
modifications: Saposin-C complexed with phosphatidylserine liposomes
notes: saposin C complexed with acidic, unsaturated phosphatidylserine PS(18:1,1) liposomes
stability in low concentrations of SDS solution [2]: stable

B3: Saposin C(S37W): saposin C with a Trp at residue 37 (in the middle) (protein, UniProt P07602 311-390, looked up, variant S37W)
Saposin-C: SDVYCEVCEFLVKEVTKLIDNNKTEKEILDAFDKMCWKLPKSLSEECQEVVDTYGSSILSILLEEVSPELVCSMLHLCSG
modifications: Saposin-C
effect of Trp substitutions on activation properties (acid β-glucosidase): no effect

Source: US9271932B2, “Fusogenic properties of saposin C and related proteins and peptides for application to transmembrane drug delivery systems” (CHILDREN'S HOSPITAL MEDICAL CENTER, priority 2006, dated 2016)
